This experiment has as its target calmodulin (unlabeled, as used in the gel mobility-shift and kinase assays of Example 2) (spinach, UniProt P04353 2-149). Briefly: gel mobility-shift, non-denaturing PAGE, 0.5 mM CaCl2.

Consider KLRAAAIASVLSS (peptide, UniProt Q43531 328-340, looked up) [synthetic peptide CCaMK 328-340], for which the binding result is “no binding”.

For the origin of these results see patent publication US6362395 (WASHINGTON STATE UNIVERSITY RESEARCH FOUNDATION, dated 2002).
